Positions count from the first letter of the chain named. Names and notes keep the numbering of the source.
B1: V229A: NTR point mutant (protein, UniProt P20789 1-424, looked up, variant V229A)
Neurotensin receptor type 1: MHLNSSVPQGTPGEPDAQPFSGPQSEMEATFLALSLSNGSGNTSESDTAGPNSDLDVNTDIYSKVLVTAIYLALFVVGTVGNSVTAFTLARKKSLQSLQSTVHYHLGSLALSDLLILLLAMPVELYNFIWVHHPWAFGDAGCRGYYFLRDACTYATALNVASLSVERYLAICHPFKAKTLMSRSRTKKFISAIWLASALLAIPMLFTMGLQNRSGDGTHPGGLVCTPIADTATVKVVIQVNTFMSFLFPMLVISILNTVIANKLTVMVHQAAEQGRVCTVGTHNGLEHSTFNMTIEPGRVQALRHGVLVLRAVVIAFVVCWLPYHVRRLMFCYISDEQWTTFLFDFYHYFYMLTNALFYVSSAINPILYNLVSANFRQVFLSTLACLCPGWRHRRKKRPTFSRKPNSMSSNHAFSTSATRETLY
B2: A177L: NTR point mutant (protein, UniProt P20789 1-424, looked up, variant A177L)
Neurotensin receptor type 1: B1 Neurotensin receptor type 1 with A177L, A229V
B3: R183A: NTR point mutant (protein, UniProt P20789 1-424, looked up, variant R183A)
Neurotensin receptor type 1: B1 Neurotensin receptor type 1 with R183A, A229V
B4: G306A: NTR point mutant (protein, UniProt P20789 1-424, looked up, variant G306A)
Neurotensin receptor type 1: B1 Neurotensin receptor type 1 with A229V, G306A
B5: V165A: NTR point mutant (protein, UniProt P20789 1-424, looked up, variant V165A)
Neurotensin receptor type 1: B1 Neurotensin receptor type 1 with V165A, A229V
B6: 1253A: NTR point mutant, Ile 253 to Ala (protein, UniProt P20789 1-424, looked up, variant I253A)
Neurotensin receptor type 1: B1 Neurotensin receptor type 1 with A229V, I253A
B7: G215A: NTR point mutant (protein, UniProt P20789 1-424, looked up, variant G215A)
Neurotensin receptor type 1: B1 Neurotensin receptor type 1 with G215A, A229V
B8: A73L: NTR point mutant (protein, UniProt P20789 1-424, looked up, variant A73L)
Neurotensin receptor type 1: B1 Neurotensin receptor type 1 with A73L, A229V
B9: A69L: NTR point mutant (protein, UniProt P20789 1-424, looked up, variant A69L)
Neurotensin receptor type 1: B1 Neurotensin receptor type 1 with A69L, A229V
B10: A90L: NTR point mutant (protein, UniProt P20789 1-424, looked up, variant A90L)
Neurotensin receptor type 1: B1 Neurotensin receptor type 1 with A90L, A229V
B11: T294A: NTR point mutant (protein, UniProt P20789 1-424, looked up, variant T294A)
Neurotensin receptor type 1: B1 Neurotensin receptor type 1 with A229V, T294A
B12: I260A: NTR point mutant (protein, UniProt P20789 1-424, looked up, variant I260A)
Neurotensin receptor type 1: B1 Neurotensin receptor type 1 with A229V, I260A
B13: M250A: NTR point mutant (protein, UniProt P20789 1-424, looked up, variant M250A)
Neurotensin receptor type 1: B1 Neurotensin receptor type 1 with A229V, M250A
B14: E166A: NTR point mutant (protein, UniProt P20789 1-424, looked up, variant E166A)
Neurotensin receptor type 1: B1 Neurotensin receptor type 1 with E166A, A229V
B15: N262A: NTR point mutant (protein, UniProt P20789 1-424, looked up, variant N262A)
Neurotensin receptor type 1: B1 Neurotensin receptor type 1 with A229V, N262A
B16: S182A: NTR point mutant (protein, UniProt P20789 1-424, looked up, variant S182A)
Neurotensin receptor type 1: B1 Neurotensin receptor type 1 with S182A, A229V
B17: T179A: NTR point mutant (protein, UniProt P20789 1-424, looked up, variant T179A)
Neurotensin receptor type 1: B1 Neurotensin receptor type 1 with T179A, A229V
B18: L256A: NTR point mutant (protein, UniProt P20789 1-424, looked up, variant L256A)
Neurotensin receptor type 1: B1 Neurotensin receptor type 1 with A229V, L256A
B19: A356L: NTR point mutant (protein, UniProt P20789 1-424, looked up, variant A356L)
Neurotensin receptor type 1: B1 Neurotensin receptor type 1 with A229V, A356L
B20: K176A: NTR point mutant (protein, UniProt P20789 1-424, looked up, variant K176A)
Neurotensin receptor type 1: B1 Neurotensin receptor type 1 with K176A, A229V
B21: D139A: NTR point mutant (protein, UniProt P20789 1-424, looked up, variant D139A)
Neurotensin receptor type 1: B1 Neurotensin receptor type 1 with D139A, A229V
B22: F147A: NTR point mutant (protein, UniProt P20789 1-424, looked up, variant F147A)
Neurotensin receptor type 1: B1 Neurotensin receptor type 1 with F147A, A229V
B23: S100A: NTR point mutant (protein, UniProt P20789 1-424, looked up, variant S100A)
Neurotensin receptor type 1: B1 Neurotensin receptor type 1 with S100A, A229V
B24: M293A: NTR point mutant (protein, UniProt P20789 1-424, looked up, variant M293A)
Neurotensin receptor type 1: B1 Neurotensin receptor type 1 with A229V, M293A
B25: W391A: NTR point mutant (protein, UniProt P20789 1-424, looked up, variant W391A)
Neurotensin receptor type 1: B1 Neurotensin receptor type 1 with A229V, W391A
B26: L109A: NTR point mutant (protein, UniProt P20789 1-424, looked up, variant L109A)
Neurotensin receptor type 1: B1 Neurotensin receptor type 1 with L109A, A229V
B27: L111A: NTR point mutant (protein, UniProt P20789 1-424, looked up, variant L111A)
Neurotensin receptor type 1: B1 Neurotensin receptor type 1 with L111A, A229V
B28: Nag7n: NTR mutant F358A+H103A+I260A+F342A (protein)
chain: TSESDTAGPNSDLDVNTDIYSKVLVTAIYLALFVVGTVGNSVTAFTLARKKSLQSLQSTVAYHLGSLALSDLLILLLAMPVELYNFIWVHHPWAFGDAGCRGYYFLRDACTYATALNVASLSVERYLAICHPFKAKTLMSRSRTKKFISAIWLASALLAIPMLFTMGLQNRSGDGTHPGGLVCTPIVDTATVKVVIQVNTFMSFLFPMLVISILNTVAANKLTVMVHQAAEQGRVCTVGTHNGLEHSTFNMTIEPGRVQALRHGVLVLRAVVIAFVVCWLPYHVRRLMFCYISDEQWTTALFDFYHYFYMLTNALAYVSSAINPILYNLVSANFRQVFLSTLACLCPGWRHRRKKRPTFSRKPNSMSSNHAFSTSATRETLY
B29: Wildtype NTR: rat neurotensin receptor, parent (protein)
chain: B28 chain with A61H, A218I, A300F, A316F

Assay: Thermostability of NTR and mutants (3H-neurotensin binding)
Format: physicochemical
Conditions: Ligand(+) format
Method: FIG. 12 Flow chart showing the two different assay formats of ligand (+) and ligand (−) used to determine receptor thermostability.
• 1. 340 site-directed mutants have been made between residues 61-400 of NTR. • 2. Initially, all of these mutants were assayed for thermostability using an assay measuring ^3H-neurotensin (agonist) binding after the heating step. […] Mutants tested for thermostability by heating in the absence of the agonist were re-tested using a slightly different assay where the mutants were heated in the presence of ^3H-neurotensin (Ligand(+) format in FIG. 12). […] All of these also have increased thermostability. • 5. Preferred combinations are • a. Nag7m F358A+A86L+I260A+F342A Tm 51° C. (neurotensin bound) • b. Nag7n F358A+H103A+I260A+F342A Tm 51° C. (neurotensin bound) • Wildtype NTR has a Tm of 35° C. with neurotensin bound.

Molecule	thermostability, heated in the presence of 3H-neurotensin
B1	improved thermostability
B2	improved thermostability
B3	improved thermostability
B4	improved thermostability
B5	improved thermostability
B6	improved thermostability
B7	improved thermostability
B8	improved thermostability
B9	improved thermostability
B10	improved thermostability
B11	improved thermostability
B12	improved thermostability
B13	improved thermostability
B14	improved thermostability

Same assay, conditions: heated in the absence of the agonist

Molecule	thermostability, 3H-neurotensin (agonist) binding after the heating step
B15	small but significant increase in thermostability
B16	small but significant increase in thermostability
B17	small but significant increase in thermostability
B18	small but significant increase in thermostability
B19	small but significant increase in thermostability
B10	small but significant increase in thermostability
B20	small but significant increase in thermostability
B21	small but significant increase in thermostability
B22	small but significant increase in thermostability
B23	small but significant increase in thermostability
B24	small but significant increase in thermostability
B25	small but significant increase in thermostability
B26	small but significant increase in thermostability
B27	small but significant increase in thermostability

Same assay, conditions: neurotensin bound

Molecule	Tm
B28	51 °C
B29	35 °C
